Source: the Human Domainome abundance scans (Beltran et al. 2025)

B1: COUP transcription factor 1, residues 83 to 159; numbered along this chain, P10589 (parent)
chain: HIECVVCGDKSSGKHYGQFTCEGCKSFFKRSVRRNLTYTCRANRNCPIDQHHRNQCQYCRLKKCLKVGMRREAVQRG

Variants of: B1
Assay: abundance fitness (aPCA) (normalised: wild type 0, dead -1); higher = more abundant; growth selection in yeast, the domain comes from the species named
Settings: Homo sapiens

Abundance fitness: each site, then its substitutions
K29: W -0.149, N -0.01, G 0.068, H -0.048, D 0.153, M -0.055, R -0.181, S -0.058, L -0.186, E 0.103, T 0.026, C -0.705, P -0.534, Q 0.03, I -0.22, A -0.079, F -0.147, V 0.013
V32: E -0.072, D -0.265, R -0.66, W -0.784, L -0.26, I -0.089, N -0.196, M 0.072, Q -0.299, G -0.378, C -0.798, K -0.181, S -0.336, F -0.068, P -0.393, H 0.19, Y -0.062, A -0.151
S31: R -0.955, Y -0.169, G -0.598, A 0.036, W -0.185, I 0.014, C 0.075, E -0.336, K -0.688, V -0.155, Q 0.053, T -0.027, H -0.176, L -0.571
F27: Q -0.739, D -0.783, R -0.515, I -0.86, H -0.634, V -0.692, Y -0.61, G -0.83, N -0.222, A -0.812, S -0.815, T -1.1, K -0.968, W -0.733, L -0.819, E -0.519
C24: D -0.335, R -0.795, W -0.707, A -0.841, L -0.841, M -1.08, T -0.885, I -0.509, Q -1.04, Y -0.319, N -0.702, K -0.697, E -1.1, P -0.609, S -0.901
F28: K -0.419, D -0.991, G -1.05, M -0.591, V -0.807, S -0.813, L -0.754, P -1.04, A -0.809, T -1.2, Q -0.809, W -0.069, R -0.698, E -0.539, Y -0.42, C -0.757
N35: R -0.196, H -0.256, W -0.38, E 0.161, T -0.346, M -0.118, S -0.508, P -0.402, G -0.003, C 0.538, V -0.104, L -0.513, K 0.085
R30: A -0.091, L -0.195, H -0.359, V 0.08, Q -0.411, Y -0.186, E 0.054, K 0.389, N -0.028, G -0.079, S -0.157, C 0.067
A42: Y 0.109, N -0.45, F -0.282, W -0.123, S 0.047, R -0.111, L 0, V 0.09, E 0.084, H -0.068, K 0.002, T -0.256, G 0.217, Q 0.239
R34: V -0.137, M -0.002, Y -0.263, I 0.091, A 0.268, W -0.25, P -0.308, Q 0.018, S -0.193, C -0.759, L -0.161, T -0.295, G 0.131
T39: D 0.12, C -0.244, R -0.108, G -0.099, S 0.113, V 0.013, I -0.019, E 0.191, A 0.17, Q 0.04, M -0.126, W 0.057, F 0.23, P -0.359, K -0.083, N 0.103
R33: Q 0.272, P -0.771, M -0.045, E 0.099, T 0.096, D 0.013, F -0.51, I 0.086, W 0.068, A 0.142, G -0.029, L 0.109, C -0.698, K -0.022
T37: E 0.178, G 0.06, V 0.044, Q -0.104, S -0.009, K 0.139, R 0.092, W 0.138, L -0.057, I -0.038, N 0.081, C -0.048, Y -0.254, H 0.133, F -0.101, M -0.215, A 0.085
S26: A -0.184, T 0.139, M 0.298, P -0.812, C -0.127, W 0.014, K 0.321, D -0.32, L -0.035, G 0.238, Q 0.247, R -0.019, I -0.611, V 0.088, E 0.144, H -0.137, F -0.275
N43: E 0.227, I -0.335, T -0.051, L -0.054, Q 0.027, H -0.319, A 0.152, D 0.278, R 0.012, W 0.015, S 0.011, P -0.256, M -0.222, F -0.22, G 0.051, K 0.018, Y -0.374, V 0.128
N45: D -0.035, E -0.025, A -0.076, G -0.004, H -0.182, C -0.202
R44: Q -0.048, F -0.207, T 0.054, P -0.405, S -0.024, A 0.077, K -0.071, W -0.07, E 0.082, V -0.292, D 0.084, Y -0.432, N 0.11, C -0.153, I 0.038, M 0.057, H -0.003
Y38: W -0.658, D -0.509, Q -0.464, V -0.257, N -0.772, I -0.24, K -0.831, M -0.059, E -0.226, C -0.745, P 0.094, G -0.458, R -0.662, T -0.669, S -0.791, F -0.089, A -0.378
R41: T -0.068, G 0.188, P 0.265, Y 0.088, K 0.301, F -0.239, W 0.145, S 0.176, E 0.107, C 0.038, D 0.085, A 0.207, N 0.21, H 0.051, L 0.228, M 0.08, I 0.135
C40: I -0.496, Q -0.848, K -0.384, T -0.503, P -0.941, H -1.21, G -0.731, W -0.712, E -0.683, R -0.864, V -0.861, S -1.08, Y -0.704, A -0.885, D -0.51, L -0.786
G23: W 0.189, Y 0.152
L36: H 0.095, R -0.082, D -0.232, P 0.03, S -0.147, Q -0.113, V 0.007, M -0.085, C -0.206, E 0.162, A -0.064, G -0.17, K 0.126
K25: C 0.087, E 0.183, L -0.031, V 0.025, S 0.067, H 0.283, P -0.492, A 0.09, R 0.095, G 0.064, D 0.183, W 0.003, F 0.168, M 0.177, T 0.011
